# B1: Glia maturation factor gamma (Mus musculus), Q9ERL7 (parent)
# chain: MSDSLVVCEVDPELKETLRKFRFRKETNNAAIIMKVDKDRQMVVLEDELQNISPEELKLELPERQPRFVVYSYKYVHDDGRVSYPLCFIFSSPVGCKPEQQMMYAGSKNRLVQTAELTKVFEIRTTDDLTETWLKEKLAFFR
# Variants of: B1
# Settings: with arpc2_bovin ARPC2, Q3MHR7
row,Variant,effect of a mutation on the interaction
1,MSDSLVVCEVDPELKETLRKFRFRKETNNAAIIMKVDKDRQMVVLEDELQNISPEELKLELPERQPRFVVYSYKYVHDDGRVSYPLCFIFSSPVGCKPEQQMMYAGSKNRLVQTAELTKVFEIRTTDKLTETWLKEKLAFFR [D128K],decreasing interaction strength
2,MSDSLVVCEVDPELKETLRKFRFRKETNNAAIIMKVDKDRQMVVLEDELQNISPEELKLELPERQPRFVVYSYKYVHDDGRVSYPLCFIFSSPVGCKPEQQMMYAGSKNRLVQTAELTKVFEIETTDDLTETWLKEKLAFFR [R124E],decreasing interaction strength
3,MSDSLVVCEVDPELKETLRKFRFRKETNNAAIIMKVDKDRQMVVLEDELQNISPEELKLELPERQPRFVVYSYKYVHDDGRVSYPLCFIFSSPVGCKPEQQAMYAGSKNRLVQTAELTKVFEIRTTDDLTETWLKEKLAFFR [M102A],decreasing interaction strength
